Assay results published in US20170202936A1 (VAXON BIOTECH, published 2017).

B1: Hsp70115A1R3 (peptide)
peptide: APREISSMVL
notes: Hsp70 115 with A at position 1 and R at position 3
B2: Her2/neu246A1 (peptide)
peptide: APKHSDCLA
notes: Synthetic optimized peptide; Her2/neu246 with A at position 1
B3: Her2/neu1069L9 (peptide)
peptide: APRSPLAPL
notes: Synthetic optimized peptide; Her2/neu1069 with L at the C-terminal position

These binders were tested against T1, HLA-B*0702 (human) (assay: RA grade (+ = 1 < RA < 10), T2-B7 cells, ME-1 mAb staining).
T1 construct: MHC class I molecule on T2-B7 cells; also called HLA-B7
From the text: (§1) The protocol used has been described previously (Rohrlich et al., 2003).

| Binder | relative affinity (RA): ratio of peptide concentration to reference peptide concentration inducing 20% of HLA-B*0702 expression [ratio] |
| --- | --- |
| APRRLVQLL (TERT444 with A at position 1) [TERT444A1] | 1 to 10 |
| APRCRAVRSL [TERT4] | 1 to 10 |
| APREYVNAL [APREYVNAL (SEQ ID NO: 47)] | 1 to 10 |
| APRALVETL [APRALVETL (SEQ ID NO: 49)] | 1 to 10 |
| APRRRLGCEL [APRRRLGCEL (SEQ ID NO: 51)] | 1 to 10 |
| APRPWTPCL [APRPWTPCL (SEQ ID NO: 52)] | 1 to 10 |
| B1 | 1 to 10 |
| APRTKAEML [APRTKAEML (SEQ ID NO: 57)] | 1 to 10 |

What follows are binders tested against T1, HLA-B*0702 (assay: T2-B7 cells, HLA-B*0702 surface expression (ME-1 mAb); ratio to reference peptide CMV265-274 (SEQ ID NO: 9)).
From the text: as §1

| Binder | RA (relative affinity) [ratio] |
| --- | --- |
| YPEEISSMVL (also called Hsp115) [Hsp70 115] | > 10 |
| APRRLVQLL (TERT444 with A at position 1) [TERT444A1] | 1.4 |
| APRCRAVRSL [TERT4] | 0.74 |
| YPVTNAVITV (also called Hsp137) [Hsp70 137 (10)] | > 10 |

The binders below were run against T1, HLA-B*0702 (assay: assay not given).

| Binder | binding result |
| --- | --- |
| B2 | binds |

These binders were tested against T1, HLA-B*0702 (assay: RA grade (++ = RA < 1), T2-B7 cells, ME-1 mAb staining).
From the text: as §1

| Binder | relative affinity (RA): ratio of peptide concentration to reference peptide concentration inducing 20% of HLA-B*0702 expression [ratio] |
| --- | --- |
| B3 | < 1 |
| APRMHCAVDL [APRMHCAVDL (SEQ ID NO: 45)] | < 1 |
| APRVSIRLPL [APRVSIRLPL (SEQ ID NO: 46)] | < 1 |
| APRSLGLEL [Hsp70397R3L9] | < 1 |
